# Reference: PMC2374443
# Target: integrin-associated protein (CD47/IAP) (human (endogenous in primary articular chondrocytes))
# Sequence (Q08722 19-323): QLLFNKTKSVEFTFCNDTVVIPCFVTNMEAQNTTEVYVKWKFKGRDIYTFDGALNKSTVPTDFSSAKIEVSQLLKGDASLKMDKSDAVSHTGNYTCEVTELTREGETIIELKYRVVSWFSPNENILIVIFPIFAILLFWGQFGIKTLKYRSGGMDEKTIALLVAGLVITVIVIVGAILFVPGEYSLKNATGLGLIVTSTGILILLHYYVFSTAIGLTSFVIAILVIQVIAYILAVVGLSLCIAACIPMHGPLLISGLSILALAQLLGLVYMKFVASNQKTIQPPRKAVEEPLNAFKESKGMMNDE
substance,measurement,value
thrombospondin-1 (TSP-1) (from UniProt P07996 19-1170) (natural protein),percentage change of membrane potential of normal chondrocytes after 20 min of 0.33 Hz mechanical stimulation in the presence of anti-CD47/IAP antibody Bric 126 (without antibody +21),2%
same,percentage change of membrane potential of osteoarthritic chondrocytes after 20 min of 0.33 Hz mechanical stimulation in the presence of anti-CD47/IAP antibody Bric 126 (without antibody -42),-2%
same,percentage change of membrane potential of osteoarthritic chondrocytes after 20 min of 0.33 Hz mechanical stimulation in the presence of anti-TSP-1 antibody (without antibody -42),3%
